Data published in IntAct's records for PubMed 14507921.

B1: Anthrax toxin receptor 1 (Homo sapiens), Q9H6X2-2 (parent)
chain: MATAERRALGIGFQWLSLATLVLICAGQGGRREDGGPACYGGFDLYFILDKSGSVLHHWNEIYYFVEQLAHKFISPQLRMSFIVFSTRGTTLMKLTEDREQIRQGLEELQKVLPGGDTYMHEGFERASEQIYYENRQGYRTASVIIALTDGELHEDLFFYSEREANRSRDLGAIVYCVGVKDFNETQLARIADSKDHVFPVNDGFQALQGIIHSILKKSCIEILAAEPSTICAGESFQVVVRGNGFRHARNVDRVLCSFKINDSVTLNEKPFSVEDTYLLCPAPILKEVGMKAALQVSMNDGLSFISSSVIITTTHCSDGSILAIALLILFLLLALALLWWFWPLCCTVIIKEVPPPPAEESEENKIK

Variants of: B1
Conditions: with pag_bacan pagA

Variant | effect of a mutation on the interaction
D50A | decreasing interaction
T118A | decreasing interaction
